First the molecules themselves.
T1: HEK293.Myc.hMSR1 cells (human MSR1) (Homo sapiens, UniProt P21757)
T1 construct: expressed in transfected cells; host or cells: HEK293 (lentiviral transduction, hygromycin selection)
T1 sequence (P21757 1-451): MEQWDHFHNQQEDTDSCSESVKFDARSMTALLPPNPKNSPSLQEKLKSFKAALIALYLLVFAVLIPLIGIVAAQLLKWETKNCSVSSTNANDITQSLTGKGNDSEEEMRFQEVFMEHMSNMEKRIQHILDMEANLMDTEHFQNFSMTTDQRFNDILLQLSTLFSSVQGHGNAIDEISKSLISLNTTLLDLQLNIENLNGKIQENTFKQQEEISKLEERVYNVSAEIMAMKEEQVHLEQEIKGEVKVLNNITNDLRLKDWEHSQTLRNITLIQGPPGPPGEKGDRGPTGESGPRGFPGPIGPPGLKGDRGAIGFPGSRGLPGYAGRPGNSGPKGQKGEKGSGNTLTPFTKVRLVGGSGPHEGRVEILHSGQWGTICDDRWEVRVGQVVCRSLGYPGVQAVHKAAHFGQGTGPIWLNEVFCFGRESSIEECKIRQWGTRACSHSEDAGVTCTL

T2: Ac-LDL binding to His9-hMSR1 (Homo sapiens, UniProt P21757)
T2 construct: human MSR1 extracellular domain expressed with a N-terminal nonahistidine tag; His9 (nonahistidine) (N); purchased R&D Systems 2708-MS
T2 sequence (P21757 77-451 limits assumed): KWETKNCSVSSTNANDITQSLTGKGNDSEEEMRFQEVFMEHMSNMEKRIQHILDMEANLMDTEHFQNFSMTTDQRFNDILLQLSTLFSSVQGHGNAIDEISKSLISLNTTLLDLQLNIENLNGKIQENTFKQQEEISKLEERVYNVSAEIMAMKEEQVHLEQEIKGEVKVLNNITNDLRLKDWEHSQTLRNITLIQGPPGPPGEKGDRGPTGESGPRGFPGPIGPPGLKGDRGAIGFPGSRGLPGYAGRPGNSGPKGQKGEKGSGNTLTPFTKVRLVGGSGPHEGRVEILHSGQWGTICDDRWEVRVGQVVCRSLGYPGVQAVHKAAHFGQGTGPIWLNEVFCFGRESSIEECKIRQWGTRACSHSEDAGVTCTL

T3: MSR1-mediated Dil-OxLDL uptake in HEK293.Myc.hMSR1 cells (Homo sapiens, UniProt P21757)
T3 construct: expressed in transfected cells; host or cells: HEK293 (lentiviral transduction, hygromycin selection)
T3 sequence (P21757 1-451): T1 sequence (P21757 1-451)

B1: H1H21227N-N297Q: "modified versions of 21227N (H1H21227N-N297Q and H1H21227N-N297D)"; anti-MSR1 antibody "with a N297Q single point mutation" (antibody, V domains shown)
VH: QVQLVQSGAEVKKPGASVKVSCKVSGYTLTELSIHWVRQVPGKGLEWMGGFDPEEGETIFAQEFRDRVTLTEDTSPDTAYMELSSLKSEDAAVYYCTTPRYCNNGICYDYWGQGTLVTVSS
VL: DIQMTQSPSSLSASVGDRVTITCRASQSISNYLNWYQQKPGKAPKLLIYTASSLQSGVPSRFSGSGSGTDFTLTISSLQTEDFATYYCQQSYSNFPITFGQGTRLEIKR
B2: H1H21227N: "anti-MSR1 antibodies ... (21227N, 21231N, 21234N) were produced with the original human Fcγ portion"; "H1H" = human IgG1 Fc (antibody, V domains shown)
VH: B1 VH
VL: B1 VL
modifications: human IgG1 Fc
notes: "anti-MSR1 antibodies ; (21227N, 21231N, 21234N) were produced with the original human Fcγ portion"; "H1H" = human IgG1 Fc
B3: H1H21227N-N297D: "The 21227N antibody was also produced as a third version with a N297D mutation" (antibody, V domains shown)
VH: B1 VH
VL: B1 VL
B4: H1H21231N: "anti-MSR1 antibodies ... (21227N, 21231N, 21234N) were produced with the original human Fcγ portion"; "H1H" = human IgG1 Fc (antibody, V domains shown)
VH: EVQLVESGGGLVQPGGSLRLSCAASGFTFSDHYMDWVRQAPGKGLEWVGRTRNKANSHTTEYTASVTGRFTISRDDSRNSLYLQMNSLKTEDTAVYYCVRAGIIGTLFDYWGQGTLVTVSS
VL: B1 VL with S7F, N31S, Y32F, Y36F, L46F, T50A, T80P, N94S, F95P
modifications: human IgG1 Fc
notes: as for B2
B5: H1H21231N-N297Q: modified version of "21231N (H1H21231N-N297Q) anti-MSR1 antibodies" with "a N297Q single point mutation" (antibody, V domains shown)
VH: B4 VH
VL: B1 VL with S7F, N31S, Y32F, Y36F, L46F, T50A, T80P, N94S, F95P
B6: H1H27729P-N297Q: anti-MSR1 antibody "made with an N297Q single point mutation in human Fcγ portion" (antibody, V domains shown)
VH: QVQLVESGGGLVKPGGSLRLSCAASGFIFSDYYMSWIRQAPGKGLEWVSYISSSGTTIYGDSVKGRFTMSRDNAKNSLYLQMNSLRAEDTAVYYCARNYALFDYWGQGTLVTVSS
VL: DIQMTQSPSSLSASVGDRVTITCQASQDISKYLNWYQQKPGKAPKLLIYYTSNLETGVPSRFSGSGSGTDFTFTISSLQPEDIATYYCHQSDYLPFTFGPGTKVDIKR

The values below come from patent US12497460B2, “Anti-MSR1 antibodies and methods of use thereof” (REGENERON PHARMACEUTICALS, INC., priority 2018, dated 2025).

Numbering of substitutions follows the chain as printed. In names and notes the source's numbering stands.

In one test the test system is HEK293.mfMSR1 cells (monkey MSR1). Put plainly: Electrochemiluminescence antibody binding assay on MSR1-expressing cells.
Conditions: not given
Format: cell-based, Macaca fascicularis.
In the case of B1, the “Ratio of 11 nM Antibody Binding Signal (RLU) to isotype control, HEK293.mfMSR1” value turned out to be 23.
On the same count and under the same terms, next, B2: 26; B3: 25.
The same measure, in the same setting: under B4 stands 75.

The target of the next test is T1, HEK293.Myc.hMSR1 cells (human MSR1). The test is described as above. Format: cell-based.
Conditions: not given
Turning to B1, the “Ratio of 11 nM Antibody Binding Signal (RLU) to isotype control, HEK293.Myc.hMSR1” value (from here on “Ratio … HEK293.Myc.hMSR1”) turned out to be 37.
Same read-out and setting: under B2 stands 37.
Take B3: the “Ratio … HEK293.Myc.hMSR1” value came out at 34.
On to B4, for which the “Ratio … HEK293.Myc.hMSR1” value is 61.

In a further test the target is T2, Ac-LDL binding to His9-hMSR1. Briefly: Competition sandwich ELISA, blocking of Ac-LDL binding. Particulars: 50 pM Ac-LDL. Here is the method:
The ability of anti-MSR1 antibodies disclosed herein to block the binding of various ligands to human MSR1 was measured using three competition sandwich ELISA assays. The ligands used in the assays were: (1) acetylated LDL (Ac-LDL), (2) oxidized LDL (Ox-LDL), and (3) advanced glycation end-products of bovine serum albumin (AGE-BSA).
Anti-MSR1 antibodies or isotype control antibodies were serially diluted as appropriate for each tested ligand and added in duplicate for each serial dilution set to microtiter plates coated with His9-hMSR1. Buffer alone was also added to wells on each coat. […] This assay was conducted in four different assay runs.
Data analysis was performed using a sigmoidal dose-response model within Prism™ software (GraphPad). Percent blockade at maximum concentration of the antibody tested in each assay was calculated as an indicator of the ability of the antibodies to block the binding of Ac-LDL, Ox-LDL or biot-AGE-BSA to His9-hMSR1 on the plate relative to the baseline of the assay. In the calculation, binding signal of the same concentrations of Ac-LDL, Ox-LDL, or biot-AGE-BSA used for the assays in the absence of antibody was referenced as 100% binding or 0% blocking, while the baseline of the assay, defined as binding signal of the sample of buffer without MSR1 ligands or antibody, was referenced as 0% binding or 100% blocking. The maximum percent blockade at the highest concentration of antibody tested in each assay are reported for all antibodies.
On the technique in general: ELISA stands for enzyme-linked immunosorbent assay.
As to B1, the “Anti-MSR1 antibody (100 nM) blocking of Ac-LDL binding to His9-hMSR1 % Blocking” value (shortened to “Anti-MSR1 antibody … to His9-hMSR1 % Blocking”) came out at 105%.
B5: the “Anti-MSR1 antibody … to His9-hMSR1 % Blocking” value is −60%.
B2: the “Anti-MSR1 antibody … to His9-hMSR1 % Blocking” value was 105%.
On the same count and under the same terms, next, B3: 101%; B4: −62%.

A further test concerns the target T3, MSR1-mediated Dil-OxLDL uptake in HEK293.Myc.hMSR1 cells. Briefly: Ligand uptake assay, Dil-OxLDL. The class given is cell-based. The note with it: 10 μg/mL Dil-OxLDL. As for the experimental part:
A bioassay was generated to assess the ability of the exemplary anti-MSR1 antibodies to regulate the uptake of certain MSR1 ligands.
Generation of MSR1-expressing cell lines for assay. […] The resulting cell line, referred to here as “HEK293.Myc.hMSR1”, was selected and maintained in DMEM containing 10% FIBS, NEAA, penicillin/streptomycin, L-glutamine, and 100 μg/mL hygromycin.
Ligand uptake assay. […] After 30 minutes, either oxidized or acetylated low-density lipoprotein (LDL) labeled with 1,1′dioctadecyl-3,3,3′,3′-tetramethylindocarbocyanine perchlorate (referred to as “Dil-OxLDL” or “Dil-AcLDL,” respectively) was added to the cells at a constant concentration of 10 μg/mL. […] Results were analyzed using nonlinear regression (4-parameter logistics) with the Prism 7 program to obtain EC50 and IC50 values. The percentage of inhibition was calculated with the Relative Fluorescent Unit (RFU) values by using the following equation: […]
In the equation, “RFUBaseline” is the fluorescence value from the cells treated with 10 μg/mL ligand without antibodies, “RFUInhibition” is the minimum fluorescence value with for a particular antibody with 10 μg/mL ligand, and “RFUBackground” is the fluorescence value from cells without any ligand or antibodies.
With B6, the “Dil-Oxidized LDL IC50” value is on record as “no inhibition” and the “maximum inhibition of Dil-OxLDL uptake” value is “no inhibition”.

Still in this test, the particulars now being: 10 μg/mL Dil-OxLDL, read-out: Dil-Oxidized LDL IC50.
As for B1, the half-maximal inhibitory concentration (IC50) was 1.8 nM.
Still for that read-out and setting: under B2 stands 2 nM; under B4, 3.6 nM.

Still in this test, the particulars now being: maximum inhibition, 10 μg/mL Dil-OxLDL.
With B6, the “Dil-Oxidized LDL % Inhibition” value is given as “no inhibition”.
Still for that read-out and setting: under B1 stands 94%; under B2, 89%.
On the same count and under the same terms, next, B4: 78%.

The IC50 is the midpoint of a concentration-inhibition curve.
